The results in this text go back to the supplement of paper PMC9732359.

± gives the uncertainty stated by the source.

This data set can be described thus: protein stability index of a GFP-peptide fusion (yeast GPS) (PSI 1-4); higher = more stable; sorted into four equal gates, so the index is relative within each strain. The essentials:
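Tiled 17-residue peptides from yeast proteins were fused downstream of GFP on a plasmid that also expresses Cherry, and the pooled library was carried in yeast. Mid-log cultures grown in leucine-free medium were sorted into four equal gates by GFP/Cherry fluorescence ratio. Plasmids from each gate were PCR-amplified and Illumina-sequenced, and reads were assigned to strains by barcodes. Each peptide's protein stability index is the sum, over gates, of the gate's read frequency multiplied by its gate number.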

IWDSQKFFIMIVKGNII [POP4] displayed a protein stability index (doa10∆) of 1.37 ± 0.069, a protein stability index (pdr5∆) of 1.44 ± 0.096, a protein stability index (san1∆) of 1.38 ± 0.15 and a protein stability index (ubr1∆) of 1.32 ± 0.083.
For TNRHTLALETVLIKMVK [SIR3], the protein stability index is, setting by setting: (doa10∆) 2.84 ± 0.11; (pdr5∆) 2.86 ± 0.072; (san1∆) 2.61 ± 0.069; (ubr1∆) 2.88 ± 0.054.
For HLSKSPADRPQGRRNSR [SIR4], the protein stability index (doa10∆) came out at 2.79 ± 0.089, the protein stability index (pdr5∆) worked out at 2.85 ± 0.067, the protein stability index (san1∆) was 2.75 ± 0.059 and the protein stability index (ubr1∆) amounted to 2.78 ± 0.058.
As for DFELEISWCSLSETNGL [PRE10], the protein stability index runs as follows: (doa10∆) 2.92 ± 0.076; (pdr5∆) 2.93 ± 0.094; (san1∆) 2.84 ± 0.083; (ubr1∆) 2.84 ± 0.069.
Consider IKQQQQQQQQQNGQQPP [YML103C/NUP188], for which the protein stability index is 2.31 ± 0.036 (doa10∆), 2.63 ± 0.039 (pdr5∆), 2.48 ± 0.04 (san1∆) and 2.39 ± 0.034 (ubr1∆).
For the sequence PYKYRLREEIFIANEGV [RPL2A], the protein stability index is 2.88 ± 0.096 (doa10∆), 2.94 ± 0.085 (pdr5∆), 2.29 ± 0.067 (san1∆) and 2.86 ± 0.054 (ubr1∆).
Regarding PYFEQKIQETELKIRSK [RPT6], the protein stability index is 2.71 ± 0.12 (doa10∆), 2.84 ± 0.1 (pdr5∆), 2.96 ± 0.13 (san1∆) and 3.04 ± 0.088 (ubr1∆).
Turning to KTYKEGINKNEEYRKQL [SMC1], the protein stability index runs as follows: (doa10∆) 3.23 ± 0.16; (pdr5∆) 2.2 ± 0.084; (san1∆) 2.31 ± 0.077; (ubr1∆) 2.19 ± 0.056.
For QGRFRGNLSGKRVDFSG [RPO31], in that order: 3.36 ± 0.099, 2.12 ± 0.11, 2.76 ± 0.1 and 2.56 ± 0.12.
Regarding DERSQGEKNFTSAHLKL [SMC4], the protein stability index (doa10∆) stood at 3.17 ± 0.16, the protein stability index (pdr5∆) stood at 3.4 ± 0.13, the protein stability index (san1∆) was 3.14 ± 0.076 and the protein stability index (ubr1∆) amounted to 3.36 ± 0.11.
Turning to PGEFVTAIAHSIREQVH [SNF5], the protein stability index is 2.27 ± 0.08 (doa10∆), 2.13 ± 0.047 (pdr5∆), 1.94 ± 0.054 (san1∆) and 2.29 ± 0.047 (ubr1∆).
On to HVKRITKIAQSQTMAET [ECM29], for which the protein stability index stood at 2.33 ± 0.057 (doa10∆), 2.46 ± 0.036 (pdr5∆), 2.02 ± 0.061 (san1∆) and 2.07 ± 0.033 (ubr1∆).
For EARLRNLTYSSGLFVDV [RPB2], in that order: 2.34 ± 0.057, 2.25 ± 0.047, 1.46 ± 0.075 and 1.79 ± 0.028.
Consider DICQIDTNAPVAATITS [SRB8], for which the protein stability index by setting is: (doa10∆) 2.29 ± 0.063; (pdr5∆) 2.45 ± 0.083; (san1∆) 2.36 ± 0.096; (ubr1∆) 2.26 ± 0.049.
VTGASQFQRLAPSLTVP [PRE2]: the protein stability index amounted to 2.01 ± 0.096 (doa10∆), 1.25 ± 0.095 (pdr5∆), 1.36 ± 0.2 (san1∆) and 1.67 ± 0.089 (ubr1∆).
In the case of EKLLETNVSKQNDFLFS [ECM29], the protein stability index is, setting by setting: (doa10∆) 2.64 ± 0.1; (pdr5∆) 2.97 ± 0.093; (san1∆) 1.53 ± 0.16; (ubr1∆) 1.76 ± 0.089.
In the case of KNHTHNLPGNITVVLGV [RRP4], the protein stability index reads like this: (doa10∆) 2.3 ± 0.14; (pdr5∆) 2.68 ± 0.084; (san1∆) 2.32 ± 0.17; (ubr1∆) 2.66 ± 0.078.
Regarding MKVKADRDESSPYAAML [RPS14A], the protein stability index is, setting by setting: (doa10∆) 3.37 ± 0.1; (pdr5∆) 3.29 ± 0.065; (san1∆) 3.23 ± 0.048; (ubr1∆) 3.27 ± 0.068.
Consider SSSTQNVFVILMDKCLP [DIS3], for which the protein stability index turned out to be 1.97 ± 0.085 (doa10∆), 1.96 ± 0.053 (pdr5∆), 2.13 ± 0.052 (san1∆) and 1.95 ± 0.043 (ubr1∆).
For LQCPMLYVESTGKFVLQ [CSN12], the protein stability index reads like this: (doa10∆) 2.34 ± 0.12; (pdr5∆) 2.98 ± 0.12; (san1∆) 2.43 ± 0.15; (ubr1∆) 2.68 ± 0.1.
As to LARRTDAPFNKVVLKAL [RPL18A], the protein stability index reads like this: (doa10∆) 1.22 ± 0.057; (pdr5∆) 1.28 ± 0.048; (san1∆) 1.18 ± 0.12; (ubr1∆) 1.45 ± 0.068.
As to KSIRKDTVEEKKEEKLN [SIR4], the protein stability index was found to be 2.96 ± 0.088 (doa10∆), 3.2 ± 0.12 (pdr5∆), 3.17 ± 0.065 (san1∆) and 2.76 ± 0.091 (ubr1∆).
For the sequence TVDVSSPTENGVFDPAS [RPL22A], the protein stability index (doa10∆) is 3.06 ± 0.054, the protein stability index (pdr5∆) came out at 3.17 ± 0.064, the protein stability index (san1∆) was 2.69 ± 0.057 and the protein stability index (ubr1∆) came out at 2.87 ± 0.042.
For EVNISSLDAREANFDLI [RPC40], the protein stability index was determined as 3.4 ± 0.11 (doa10∆), 3.37 ± 0.095 (pdr5∆), 3.17 ± 0.095 (san1∆) and 3.22 ± 0.068 (ubr1∆).
On to GPGFKFVDLNEKELQNE [SRB4], for which the protein stability index came to 2.64 ± 0.17 (doa10∆) and 2.85 ± 0.14 (ubr1∆).
